Patent publication US12723105 (dated 2026)

What was measured:
Human serum albumin = Human serum albumin (UniProt P02768 25-609); experiment: Octet BLI
[1] = target: T1, CD47 natively expressed on tumor cell surface (Jurkat, HL60 cells) (human, UniProt Q08722 19-323); experiment: flow cytometry; HL-60 cells
CD47-Fc (R&D systems) = CD47-Fc (R&D systems) (UniProt Q08722 19-139); experiment: competitive ELISA vs SIRPα
[2] = target: T1, CD47 natively expressed on tumor cell …; experiment: competitive flow cytometry vs SIRPα-Fc; Jurkat cells
[3] = target: PD-L1 on PD-L1-expressing APC/CHO-K1 cells (UniProt Q9NZQ7 19-290); experiment: flow cytometry, PD-L1 CHO cells; HCAb
[4] = target: human CD47 (R & D systems) (UniProt Q08722 19-139); experiment: flow cytometry, CD47-overexpressing cells; HCAb

Sequence of PD-L1 on PD-L1-expressing APC/CHO-K1 cells (Q9NZQ7 19-290): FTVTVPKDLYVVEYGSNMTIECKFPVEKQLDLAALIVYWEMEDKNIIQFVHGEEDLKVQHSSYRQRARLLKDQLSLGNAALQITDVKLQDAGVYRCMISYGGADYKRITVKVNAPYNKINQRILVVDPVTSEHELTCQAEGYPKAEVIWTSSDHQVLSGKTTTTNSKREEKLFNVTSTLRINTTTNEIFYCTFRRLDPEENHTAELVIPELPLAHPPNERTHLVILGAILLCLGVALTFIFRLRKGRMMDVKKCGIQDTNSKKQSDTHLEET

Row | Binder | EC50 [1] | IC50 (CD47-Fc (R&D systems)) | IC50 [2] | EC50 [3] | further results
1 | HS27 (VHH) VHH: EVQLVESGGGLVQPGGSLRLSCAASGRTFSPYTMGWFRQASGKERESVAATTWTGSRSYYGESVKGRFTISRDSTKNTMSLQMNSLKPEDTAVYYCAAADGAGLYTNRGQYDYWGQGTQVTVSS | – | – | – | – | Kd (Human serum albumin): 1.14 nM
2 | PL14 (antibody, V domains shown) VH: EVQLVESGGGLVQAGGSLRLSCAASGSTSGIYDMGWYRQAPGKLREVVGIITSGGTTNYADFAKGRFTISRDNAKNMMYLQMNSLKPEDTAVYYCNIRTRLIIWGQGTQVTVSS | – | – | – | 2.09 nM | –
3 | A09-10 (antibody, V domains shown) VH: QVQLVESGGGLVQAGGSLRLSCAASGGGRTFSNYALGWFRQAPGKEREFVAAISRSGGNINYADSAKGRFTISRDNFKNTTYLQMSSLKPEDTAVYYCAAHYLLLPSYISTSTNMYNYWGQGTQVTVSS | – | – | – | – | EC50 [4]: 0.36 nM

The next lines start with results.

Row | EC50 [1] | IC50 (CD47-Fc (R&D systems)) | IC50 [2] | EC50 [3] | Binder | further results
4 | 0.182 nM | 0.267 nM | 0.935 nM | – | multi-specific molecule 3321 (CD16F1-L1-hHS10-L1-hA09-10-3-L3-hA09-10-4-L1-H33-14-L3-H33-14) (other) EVQLVESGGGLVQPGGSLRLSCAVSGSLFSARVMGWYRQAPGKQRELVAAITSGVRTDYADSVKGRFTISRDNAKRAVYLQMNSLKPEDTAVYYCNVNLYNTGNYWGQGTQVTVSSGGGGSGGGSEVQLVESGGGLVQPGGSLRLSCAASGSTDSAYRMGWFRQAPGKEREFVSAINWSDGRTYYADSVKGRFTISRDNSKNTLYLQMNSLRAEDTAVYYCAADPDSRLYYTVPQNYDYWGQGTLVTVSSGGGGSGGGSEVQLVESGGGLVQPGGSLRLSCAASGGGRTFSNYALGWFRQAPGKEREFVAAISRSGGNINYADSVKGRFTISRDNFKNTVYLQMSSLRAEDTAVYYCAAHYLLLPSYISTSTNMYNYWGQGTQVTVSSAAAQVQLVESGGGLVQPGGSLRLSCAASGGGRTFSNYALGWFRQAPGKEREFVAAISRSGGNINYADSVKGRFTISRDNAKNTVYLQMSSLRAEDTAVYYCAAHYLLLPSYISTSTNMYNYWGQGTQVTVSSGGGGSGGGSQVQLVESGGGLVQPGGSLRLSCAASGRTSLILAMAWWRQAPGKEREFAGRIWWNNDMTRYSDSVKGRFTISRDNAKNTVYLQMSSLRAEDTAVYYCEADLIGGSRGWGQGTLVTVSSAAAQVQLVESGGGLVQPGGSLRLSCAASGRTSLILAMAWWRQAPGKEREFAGRIWWNNDMTRYSDSVKGRFTISRDNAKNTVYLQMSSLRAEDTAVYYCEADLIGGSRGWGQGTLVTVSS | –
5 | 26.2 nM | 0.453 nM | 1.28 nM | – | multi-specific molecule 1511 (CD16F1-L1-hHS10-L1-hA09-10-2-L3-A09-10-L1-hPL16-L3-hPL16) (bispecific antibody) EVQLVESGGGLVQPGGSLRLSCAVSGSLFSARVMGWYRQAPGKQRELVAAITSGVRTDYADSVKGRFTISRDNAKRAVYLQMNSLKPEDTAVYYCNVNLYNTGNYWGQGTQVTVSSGGGGSGGGSEVQLVESGGGLVQPGGSLRLSCAASGSTDSAYRMGWFRQAPGKEREFVSAINWSDGRTYYADSVKGRFTISRDNSKNTLYLQMNSLRAEDTAVYYCAADPDSRLYYTVPQNYDYWGQGTLVTVSSGGGGSGGGSEVQLVESGGGLVQPGGSLRLSCAASGGGRTFSNYALGWFRQAPGKEREFVAAISRSGGNINYADSVKGRFTISRDNFKNTTYLQMSSLEPEDTAVYYCAAHYLLLPSYISTSTNMYNYWGQGTQVTVSSAAAQVQLVESGGGLVQAGGSLRLSCAASGGGRTFSNYALGWFRQAPGKEREFVAAISRSGGNINYADSVKGRFTISRDNFKNTTYLQMSSLEPEDTAVYYCAAHYLLLPSYISTSTNMYNYWGQGTQVTVSSGGGGSGGGSEVQLVESGGGLVQPGGSLRLSCAASGGTFLTYSMSWVRQAPGKEREFVSSINWSGYMTYYADSVKGRFTISRDNSKNTLYLQMNSLRAEDTAVYYCAAARTAIAAKRSSEFDYWGQGTQVTVSSAAAEVQLVESGGGLVQPGGSLRLSCAASGGTFLTYSMSWVRQAPGKEREFVSSINWSGYMTYYADSVKGRFTISRDNSKNTLYLQMNSLRAEDTAVYYCAAARTAIAAKRSSEFDYWGQGTQVTVSS | –
6 | – | – | – | 1.78 nM | PL16 (antibody, V domains shown) VH: QVQLVESGGGLVQAGGSLRLSCAFSGGTFLTYSLGWFRQGPGKEREFVASINWSGYMTSYVDSVKGRFTISRDNAKNTVYLQMNSLKPEDTALYYCAAARTAIAAKRSSEFDYWGQGAQVTVSS | –
